Test results: US20260226147A1 (ATRECA, published 2026)

B1: AB-001558 (antibody, V domains shown)
VH: QVQLVESGGGVVQPGRSLRLSCAASGFTFSSYGMHWVRQAPGKGLEWVAVIWYDGNNKYYVDSVKGRFTISRDNSKNTLYLQMNSLRAEDTAVYYCARDHDADYVEKWGAFDLWGQGTMVTVSS
VL: EIVMTQSPATLSVSPGERATLSCRASQSVSSNLAWYQQKPGQAPRLLIYGASARATGIPARFSGSGSGTEFTLTISSLQSEDFAVYYCQQYNNGRTFGQGTKVEIT
B2: AB-007163 (antibody, V domains shown)
VH: QVHLLESGGTVVQPGGSLRLSCEASGFIFSDYGMHWVRQVPGKGLEWVAVIWFDGSQKYYGDSVKGRFTVSRDNSKNTLYLQMNTLRADDTGIYYCATDIRGAYKVTDGGFDQWGHGTLVTVSP
VL: QSVLTQPPSISGAPGQRVTISCTGAGSNIGAGYEVHWYQQLPGTAPKLLMFADNNRPSGVPDRFSGSKSGTSASLAITGLQAEDEADYYCQSYDISLKNFVFGTGTTVTVL

Legend:
[1] = biological target: T1, recombinant CSP (Plasmodium falciparum circumsporozoite protein, 3D7) (Plasmodium falciparum, UniProt Q7K740 19-374); assay: SPR (Carterra LSA), IgG captured, CSP analyte
T1 construct: also called CSP (3D7)
T1 sequence (Q7K740 19-374 limits assumed): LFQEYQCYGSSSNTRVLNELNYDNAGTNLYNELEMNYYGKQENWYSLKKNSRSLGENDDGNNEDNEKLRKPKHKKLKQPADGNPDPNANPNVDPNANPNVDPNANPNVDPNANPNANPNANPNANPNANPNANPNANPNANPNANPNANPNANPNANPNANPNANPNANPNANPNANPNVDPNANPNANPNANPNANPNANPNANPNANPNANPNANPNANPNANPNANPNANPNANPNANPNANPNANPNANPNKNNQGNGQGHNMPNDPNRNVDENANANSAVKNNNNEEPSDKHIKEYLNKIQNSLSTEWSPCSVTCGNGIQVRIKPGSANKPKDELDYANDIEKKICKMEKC

[2] = biological target: T2, NVDP3NANP2 peptide (NVDPNANPNVDPNANPNVDP) (Plasmodium falciparum, acetylated at N-terminus; amidated at C-terminus); assay: SPR (Carterra LSA, 25 C), antibody immobilised on the chip, peptide as analyte
T2 construct: Synthetic peptide; also called long, minor repeat peptide
T2 peptide: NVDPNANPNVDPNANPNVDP

[3] = biological target: T3, NANP6 peptide (NANPNANPNANPNANPNANPNANP) (Plasmodium falciparum, N-terminal biotin-aminohexanoic acid tag; unmodified C-terminus); assay: as above
T3 construct: Synthetic peptide (CPC scientific); also called (NANPx6) peptide; long, major repeat peptide
T3 peptide: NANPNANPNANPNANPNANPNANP

Binder | Kd [1] [nM] | binding result [2] | binding result [3]
B1 | 1.05 |  | 
B2 |  | binds | binds
